# Assay: soluble on expression in E. coli; label from the status in PepcDB or PDB records
row,Sequence,soluble on expression in E. coli
1,MGHHHHHHSHIHRIDSTEVIYQPRRKRAKLIGKYLMGDLLGEGSYGKVKEVLDSETLCRRAVKILKKKKLRRIPNGEANVKKEIQLLRRLRHKNVIQLVDVLYNEEKQKMYMVMEYCVCGMQEMLDSVPEKRFPVCQAHGYFCQLIDGLEYLHSQGIVHKDIKPGNLLLTTGGTLKISDLGVAEALHPFAADDTC,not soluble
2,MSVNNIDQLLGELKSAAALASGKQAPAAQQTPQVDFSDVLKSTIEQVNSAQQTSEEMQKQFQLGDNKEVNLQDVMMSLQKASLSFQTMVQARNKLVSAYQEIMNTQV,not soluble
3,HSQRVIRELDEHGFWSAMIPQWEHIRGRMPRESVHIHTIDVHSMVVTANCATQSIRVARPDLLFLAALFHDIGKGYGRRHEEVGAEFVVDMATTLRLNPSDTQIVETLVAQHTIIPHIVGRYNPTSTEAIDKLLDAVNYDLLTLDLLEALVEADAQGTAPGVWSAVLRYGTRELCAQARQR,not soluble
4,MTSVLDPDRALEDEAKDKFGFVGIAKQLAPPIIEAAKGEGMVIGLEGRWGSGKTSLLNFLRAELQASKKSGIHTITIAPWLNGDTSSLVLSLLEPMAAVLKQKEDELAESYGEGQSATKERVAEVGRLLRAYGPKTARRIASLANVAGYVLPGAQAIGGALAASASAADEIFDVGPTPSELKQELAVKIQELNVGFIVILDDLDRLEPEQAVEVVRLVRSVADFPKVVYLMCYDREVLSEALKTGLKVSDGDLFLQKIVQLTFNIPLPEPFDLRTQFRNEAKAIYFEATGVDLDGAILHDLTYAVDREGMGLSTPREVKLALNSIRFVFSQVKDDVYFPDLCRLHLIKTTNYKLYKWLEIYLSVRSVLVTGDATVSEDEKTKMGEELKMLLPASGPGSVHSIWSLARFIPGVVDTEKVSERVFNAINSSAISEAVRLKRLGSPLHYRFYFALTGPKTVMPDEDFNAILELARNDIDQLESRLAAETMKRRDSGRTWFEHVLDRLDDDCISSLDESQLSGILHALSGMMDIAMKEDGEVRSFALSLDGIANIVAKRCLVRLRELNPEKQANTVRSMAQDGKAINWLVGKFFRSQLFNHGKVGERAERPEQWEISEDLLDDIIEILRKRLSEQDIKNLIPNLPNVSAYLYGWMNLTDDDQAKNWVQEYSESDEGFLDILNHLRGWAMSDKVYYPLSEKTVSSFLDWNEVKTRLDGMQSGEFSDKLEHHHHHH,soluble
5,MGSDKIHHHHHHMSGKNKSVADIMAVCQEMFEDLNFNYARKWKAAKEGRKVIGFLPVYSPIEMIHAAGCLPLGIFGGGDQMEVIHGDAYYQSYICRIPRSTIELGVTNRLDFVDGMIFPFVCDVIRNLSGIWKLMFPNVWSKFFDTPQNYDKSIGGTYYIQELQELKEGLETLTGRKISDADIQRSIGLYNENRRLIREVYAFRAKQPWLAPTSEVYVLMRAGLMMDVEEHNQMLKDYMAAAAKEDRPKRDNVRISIYGSFCEQPPLNLIKSIEMAGCYVVDDDYSLNNRFLMVDVPTTGNPLEALAITYLENSVETSCKYVPDGKVKGQFHVDAVKACGAEGVIYATPSFCDPALLDRPMVCNKLSEAGIPYIAFKYAENSGQMQPIREQAGTFADSIKLWS,not soluble
6,MHHHHHHSSGVDLGTENLYFQSMPFPEGKVLDDMEGNQWVLGKKIGSGGFGLIYLAFPTNKPEKDARHVVKVEYQENGPLFSELKFYQRVAKKDCIKKWIERKQLDYLGIPLFYGSGLTEFKGRSYRFMVMERLGIDLQKISGQNGTFKKSTVLQLGIRMLDVLEYIHENEYVHGDIKAANLLLGYKNPDQVYLADYGLSYRYCPNGNHKQYQENPRKGHNGTIEFTSLDAHKGVALSRRSDVEILGYCMLRWLCGKLPWEQNLKDPVAVQTAKTNLLDELPQSVLKWAPSGSSCCEIAQFLVCAHSLAYDEKPNYQALKKILNPHGIPLGPLDFSTKGQSINVH,soluble
7,MGRQAFEFGLRPKDQFKVMQHFDLNTNHLEVLNRLYTPLIGTQAVGLYHFMTQFVKDSHNETLILSHYIFMNELKINLLEFRQQMDLLEAIGLLKAFVKHDEQETQFVYQLIQPPSAHLFFNDPMLSIFLYSEVEHRRFHELKKYFEYQQIDLSEFKQVTRQFTDVFKVPSTKIDIDTSDIPINEPYQGIDLSNESFDFEMLRQMLGKHFISQDIVTKDAKRLITQLATLYGLTADGMKHVILNSITSGQQLSFEEMRKQARSYYLMEHENQMPKLQVKSPATSSSTGKSSEVNPKPQSDEWFELLEQTSPIDMLASWSESEPTISQKTMVEELIEREKMSFGVINILLQFVMLKEDMKLPKAYILEIASNWKKKGIKTAKEAYNYAKKVNQPKNEGSSGNYQKRGSYYGQRNRISKEKTPKWLENRDKPSEEDSAKDNSVDDQQLEQDRQAFLDKLSKKWEEDSR,not soluble
8,MGSDKIHHHHHHMMRLLCFIDYLGSGGAQRQLTFLARHLKKSGVDVEVLTYHESDFFIPVLAEAGINVETVRGGGRFTKVFSLRKSIRARKFDVLLAFLNAPALYAEIAALPRRRWGLVVSERLAVPGSSMGFARFRRYLHGLADYVTTNSHTNRLLIEKAVPGLTGKVVTIYNALDLEYFSPLQGPVPAGDGRLRFVVLASHQLKKNLLGLVEAAHQVVQAAPELDFTIEWFGRFDAGKNGPGDTGPFEQAKRRIETFRIQDRFIFSEPTSDVAAVYRRADALILPSFYEGLPNVVCEAMACGRPVLMSNVCDAENLVREGDNGFLFDPRDPADMARAILRFAALSGDDRKLMGEKSRKRAVILFNPERFAAHYRRVLESAMRREQTIIPHWCESIPQSAIRMIENEK,not soluble
9,MNATIQTIPELLIQTRGNQTEVARMLSCARGTVLKYNRDSKGERHVIVNGVLMVKQGKRGRP,not soluble
10,MSLRASGSGANPDKTWESRSLPIGNGSLGANILGSVAAERITLNEKTLWKGGPNTSKGAEYYWDVNKQSAGVLKEIRQAFLDEDKEKAAQLTRNNFNGLAAYEEKDETPFRFGSFTTMGELYVETGLNELRMSNYRRILSLDSAMVVVQFDKDGVQYQRKYFISYPDSVMVMKFTANQSGKQNLILSYCPNSEAKSNLRADGKDGLVYTGVLDNNGMKFAFRIKAIHKGGTLEAENDRLIVKGADEVVFLLTADTDYKMNFNPDFKDPKTYVGNDPEQTTRIMMDQAVQKGYDELYRNHEADHTALFNRVRLQLNPDISSPNLPTYQRLANYKKGTPDYQLEQLYYQFGRYLLIASSRPGNMPANLQGMWHNNLDGPWRVDYHNNINIQMNYWPACSANLSECTWPLIDFIRSLVKPGEQTAQAYFNARGWTASISANIFGFTAPLSSNMMSWNLNPTAGPWLATHIWEYYDYTRDKKFLKEIGYDLIKSSAQFAVDHLWHKPDGTYTAAPSTSPEHGPIDEGVTFAHAVVREILLDAIQASKELGIDSKERKQWEKILDKLVPYRIGRYGQLMEWSTDIDDPEDEHRHVNHLFGLHPGHTISPITTPKLAEAAKVVLEHRGDGATGWSMGWKLNQWARLQDGNHAYKLYGNLLKNGTLDNLWDTHAPFQIDGNFGGTAGITEMLLQSHMGFIQLLPALPDAWKNGSITGICAKGNFEISISWKEGQLDKATILSGSGTPCNVRYGDKTLSFSTVKGKKYEITLVGNLLKLEGHHHHHH,soluble
11,MPSYTVTVATGSQWFAGTDDYIYLSLVGSAGCSEKHLLDKPFYNDFERGAVDSYDVTVDEELGEIQLVRIEKRKYWLNDDWYLKYITLKTPHGDYIEFPCYRWITGDVEVVLRDGRAKLARDDQIHILKQHRLKELETRQKQYRWMEWNPGFPLSIDAKCHKDLPRDIQFDSEKGVDFVLNYSKAMENLFINRFMHMFQSSWNDFADFEKIFVKISNTISERVMNHWQEDLMFGYQFLNGCNPVLIRRCTELPEKLPVTTEMVECSLERQLSLEQEVQQGNIFIVDFELLDGIDANKTDPCTLQFLAAPICLLYKNLANKIVPIAIQLNQIPGDENPIFLPSDAKYDWLLAKIWVRSSDFHVHQTITHLLRTHLVSEVFGIAMYRQLPAVHPIFKLLVAHVRFTIAINTKAREQLICECGLFDKANATGGGGHVQMVQRAMKDLTYASLCFPEAIKARGMESKEDIPYYFYRDDGLLVWEAIRTFTAEVVDIYYEGDQVVEEDPELQDFVNDVYVYGMRGRKSSGFPKSVKSREQLSEYLTVVIFTASAQHAAVNFGQYDWCSWIPNAPPTMRAPPPTAKGVVTIEQIVDTLPDRGRSCWHLGAVWALSQFQENELFLGMYPEEHFIEKPVKEAMARFRKNLEAIVSVIAERNKKKQLPYYYLSPDRIPNSVAI,soluble
12,MELVIISGRSGSGKSVALRALEDVGYYCVDNLPFPLIAELASFLLASDCSAVVSLDIRNFPENLTRIDELLHQLSQLTINTKMIFLDCESATLIRRYSDSRRLHPLSNQDLSLASAIELENTLLDPLRQQADYLIDTTHSSPHELAANLRHILRGSTEKELNIVFESFGFKYGLSADADYVFDVRFLPNPHWHAELRAMTGLEQPVIDFLERQTEVHNFIYQTRNYLETWLPMLEKNNRSYLTIAFGCTGGKHRSVFITEQLAKYFQSRGKNVKIRHRSLEKY,not soluble
13,MNHTSGITPLHPSIFHNILGLVALQTTRVGGVSASPLDSLNLGTHVGDDPERVRENERRLCAFLEISCESIVTTGQVHGTEIAVVTGPGKLDGYDALITTVRGLFVGILTADCYPILIYDRRTRACGAAHAGWQGTAGRIAEKTVNAMHNSFGTRPEDCLAWVGTGISGECYEIGGEVAARFSSRYLKPSPSGEGRQLLDLSAANRDQLIEAGIPPSQVQCSELCSYRDADRFFSYRRDNGKTGRMLALIGLRHSD,soluble
14,MSLKYGHVAWIQQILDGSYADAMNTLKNITVDDSKKGESLSECELHLNVAKLSSLLVEKDNLDINTLRKIQYNLDTIDAEKNISNKLKKGEVQICKRFKNGSIREVFNILVEELKSTTVVNLSDLVELYSMLDDEESLFIPLRLLSVDGNLLNFEVKKFLNALVWRRIVLLNASNEGDKLLQHIVKRVFDEELPKNNDFPLPSVDLLCDKSLLTPEYISETYGRFPIDQNAIREEIYEEISQVETLNSEGHHHHHH,not soluble
15,MGSDKIHHHHHHMKTNIVDVFCIIDDFSKLFDETIKKKTLEEADKKCRNRKFKMSDSEVMTILILFHLSRYRDLKAFYLQYITHSCRSEFPHLVSYNRFVELQSRGGGKLIAFLNMCCLGQCTGISFIDSTPLKVCHIKRAHGHRTMRGWAQKGKSTMGWFYGFKLHIVINDRGEIINYQITPGNCDDREPLKDGTFTKNLFGKLIADRGYISQNLFDRLFVDDIHMITKIKKNMKNSLMHLYDKVLLRKRALIETVNDILKNLCRIEHTRHRSVNNFVTNLISGIIAYNILPKKPELNIEIIRNPNFPISA,not soluble
16,MKILAIINPISGIGSKSNIPSLIADVFAHDPHELFITYSQRAGHARELAAQAVEKHYDCVIAVGGDGTVNEIAQSLRYTDVVLGIVPKGSGNGLARALKLPLTVGKALEVIRAGHVRTIDCCEADSRPFFCTCGLGFDAEVSKKFAQAGSRGPITYARTMIESYLQNEPKEYKLTIDGKSFEEKAFLVTCANAPQYGNNAYIAPLADLEDGKMDVVIIRPFNPLEAPQLALQLFTKRINSNSNLDTYKAENLIIERETEGVMHLDGDPVMFGKRIEIRTYGRSLKVFATETYT,not soluble
17,MGSDKIHHHHHHMLNNYMSILSLNENDNDIKSLTKARPLASIPIAGRYRIIDFILSNLVNSGVKNIGILTQCKSRSLLDHLGSGKPWDLDRKLNGLFIFNFSGITSTLSDIEMLKSNMEYLYRSTQEKVILSSSAVICNIDFQRAAEFHEKSGKDITLIYKRTNNGKRKFLNCSVLNMDKNNNVISIGKNTGLDDVQNISLGMFIMNKKLLINILNNCIRTGFSLSLKQCIRKHMNNFTVNAYEFNGYAEYIDSVKSYYKVNMDMLNLDINREVFFKNGLIYTKVKDEAPTKYFNDSEVCNSLIANGSLIHGQIENSIIGRRVTISKGARIKNCVIMQNCTIKENVDLTNVIVDKNVIIDENTVLKGGKEFPLVIEKKSIYSEV,not soluble

# Source: the DeepSol protein solubility set
